US20180022822A1, “NOVEL ANTI-FIBROBLAST ACTIVATION PROTEIN (FAP) BINDING AGENTS AND USES THEREOF” (Mabimmune Diagnostics AG, priority 2016, published 2018)

Legend:
[1] = test system: human blood plasma clotting; assay: rotational thromboelastometry (ROTEM, NATEM) of human blood plasma
Protocol: Two batches of peripheral blood were taken from a single healthy subject in sodium citrate tubes and platelet-free blood plasma was prepared by centrifugation. Blood plasma from each tube was pooled and immediately aliquoted for storage at −80° C. The plasma has an FAP level of 130 ng/ml by ELISA. Plasma samples were treated with NI-206.82C2 (n=3) against FAP or 43A11 control (n=3) diluted in sterile saline and added to fresh fast thawed plasma such that the final concentration of antibody in the sample was 0.000667 nM, 0.00667 nM, 0.0667 nM, 0.667 nM 6.667 nM of plasma. Following 1 hr incubation with the antibody at 37° C., NATEM analysis was performed according to the manufacturer's instructions by using STAR-TEM reagent to observe the native blood clotting process after an incubation time with the antibodies of 1 h at 37° C. with the antibody before starting measurement. Statistical analysis was performed using a two-way ANOVA (*p<0.05, ** p<0.01, *** p<0.005, **** p<0.001).

FAP in human plasma = target: T1, FAP in human plasma (Homo sapiens, UniProt Q12884); assay: immunoprecipitation of FAP from human plasma, α2AP-AMC cleavage; assay type: biochemical; conditions: compared to plasma before immunoprecipitation
T1 construct: from tissue; host or cells: human blood plasma
T1 sequence (Q12884 24-760 limits assumed): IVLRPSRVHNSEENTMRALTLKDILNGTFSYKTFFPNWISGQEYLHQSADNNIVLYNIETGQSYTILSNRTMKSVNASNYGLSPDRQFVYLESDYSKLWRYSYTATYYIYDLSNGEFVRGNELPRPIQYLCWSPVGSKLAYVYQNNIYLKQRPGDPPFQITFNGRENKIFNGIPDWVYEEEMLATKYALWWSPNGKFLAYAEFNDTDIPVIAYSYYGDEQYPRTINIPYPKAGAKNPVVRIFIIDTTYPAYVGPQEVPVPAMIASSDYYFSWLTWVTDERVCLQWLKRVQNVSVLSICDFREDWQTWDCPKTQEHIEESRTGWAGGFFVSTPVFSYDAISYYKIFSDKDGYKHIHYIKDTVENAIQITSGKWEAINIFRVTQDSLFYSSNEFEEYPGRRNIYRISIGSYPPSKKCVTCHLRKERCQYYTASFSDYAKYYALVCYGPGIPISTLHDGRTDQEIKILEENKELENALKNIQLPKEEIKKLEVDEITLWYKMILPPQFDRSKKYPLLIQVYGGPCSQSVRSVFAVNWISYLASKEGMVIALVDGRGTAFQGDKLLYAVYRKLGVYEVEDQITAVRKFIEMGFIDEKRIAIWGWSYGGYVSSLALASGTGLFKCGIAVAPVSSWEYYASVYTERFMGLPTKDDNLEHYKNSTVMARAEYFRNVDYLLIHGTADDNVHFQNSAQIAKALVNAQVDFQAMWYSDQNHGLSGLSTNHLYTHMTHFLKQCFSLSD
Protocol: 100 μL of PureProteome G Magnetic Beads (Millipore LSKMAGG02) were suspended in 500 μL of 25 mM TRIS, 0.15M NaCl, and 0.1% Tween 20. Human plasma was diluted 1:5 in PBS to an end volume of 125 μL, separated into four tubes, and incubated for 30 min at RT with rotation. Beads were then collected with a magnetic stand, and the pre-cleared supernatant was transferred to a new tube containing magnetic beads coated with 82C2, 43A11, or 3A1. Antibody-conjugated beads were incubated with the plasma dilution overnight at 4° C. while rotating. Beads were then collected with a magnetic stand and the supernatant was removed of analysis of α2AP-AMC cleavage activity. To determine α2AP-AMC activity in the supernatants, a half area black 96 well plate was blocked with sterile filtered 5% BSA at 37° C. for 1 h. Then 40 μL of PBS was added to all the wells, 5 μL of the supernatant solutions to the appropriate wells, and 5 μL of α2AP-AMC solution in methanol was added for a final assay concentration of 10 μM. The fluorescence intensity (cleaved AMC) was measured at 360 nm excitation and 460 nm emission every 3 min over a total time of 30 min and the reaction velocity was calculated using Graphpad Prism 6 software.

[2] = increasing antibody concentrations

B1: NI-206.82C2: human-derived recombinant anti-FAP antibody; VH SEQ ID NO: 2 or 4 (PIMC), VL SEQ ID NO: 6 (antibody, V domains shown)
VH: QVQLQQSGPGLVKPSQTLSLTCAISGDSVSSNSVTWNWIRQSPSRGLEWLGRTYYRSKWYNDYAVSVKGRITINPDTSKNQFYLQLKSVTPEDAAVYYCARDSSILYGDYWGQGTLVTVSS
VL: QAVLTQPSSLSASPGASASLTCTLPSGINVGTYRIFWFQQKPGSPPQYLLSYKSDSDNHQGSGVPSRFSGSKDASANAGILLISGLQSEDEADYYCMIWHSSAWVFGGGTKLTVL
- clot formation time ([1]; 0.000667-6.667 nM antibody): dose dependent prolongation
- clot rigidity [1, 2]: reduces
- maximum clot elasticity [1, 2]: decreases
- maximum clotting angle [1, 2]: reduces
- rate of α2AP-AMC cleavage in plasma after immunoprecipitation (FAP in human plasma): significantly reduces
